According to patent publication US20200239594A1 (MINERVA BIOTECHNOLOGIES, published 2020):

T1: MUC1* extracellular domain peptide (PSMGFR, primary sequence of the MUC1 growth factor receptor)
T1 construct: Synthetic peptide adsorbed onto ELISA plates; The immunogen carried an extra C-terminal cysteine for KLH conjugation; also called MUC1* peptide; PSMGFR peptide
T1 peptide: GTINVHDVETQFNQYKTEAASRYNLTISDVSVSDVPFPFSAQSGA

B1: MIN-C2 scFv (heavy chain variable-linker-light chain variable, C-terminal poly-histidine tag) (scFv)
scFv: EVQLEESGGGLVKPGGSLKLSCAASGFTFSGYAMSWVRQTPEKRLEWVATISSGGTYIYYPDSVKGRFTISRDNAKNTLYLQMSSLRSEDTAMYYCARLGGDNYYEYFDVWGAGTTVTVSSAKTTPPSVYGGGGSGGGGSGGGGSDIVITQSTASLGVSLGQRATISCRASKSVSTSGYSYMHWYQQRPGQPPKLLIYLASNLESGVPARFSGSGSGTDFTLNIHPVEEEDAATYYCQHSRELPFTFGGGTKLEIKRADAAPTVSVDHHHHHH
notes: part was further purified on a PSMGFR peptide column; also called scFv protein; recombinant scFv
B2: MIN-C2 Fab (papain digestion of MIN-C2 antibody) (Fab, V domains shown)
VH: EVQLEESGGGLVKPGGSLKLSCAASGFTFSGYAMSWVRQTPEKRLEWVATISSGGTYIYYPDSVKGRFTISRDNAKNTLYLQMSSLRSEDTAMYYCARLGGDNYYEYFDVWGAGTTVTVSS
VL: DIVITQSTASLGVSLGQRATISCRASKSVSTSGYSYMHWYQQRPGQPPKLLIYLASNLESGVPARFSGSGSGTDFTLNIHPVEEEDAATYYCQHSRELPFTFGGGTKLEIKR
notes: Enzymatic Fab of about 50 kD made by papain digestion of the parent mAb; also called monovalent form of MIN-C2

Legend:
[1] = target: T1, MUC1* extracellular domain peptide …; assay: ELISA on plate-adsorbed peptide; reference: refolded scFv before peptide affinity chromatography
[2] = target: T1, MUC1* extracellular domain peptide …; assay: competition ELISA, peptide on plate, competitor: parent MIN-C2 antibody
Method: To test the ability of the Fab produced by papain digestion to compete with the parent antibody for binding to the MUC1* peptide, varying concentrations of the Fab were added. After wash steps, the ELISA was processed by standard methods.

Binder | fold higher specific activity after antigen affinity purification [1] [fold] | fold improvement of specific binding after antigen affinity purification [1] [fold] | binding result [2]
B1 | ~10 | 10 | –
B2 | – | – | binds
